These results are taken from patent US5969210, “Methods for the characterization of compounds which stimulate STF-1 expression in pancreatic islet cells” (Research Development Foundation).

This data set addresses BETA-2/E47 heterodimer (reticulocyte lysate) (UniProt Q60430;P15923-2 Q60430:1-355,P15923-2:1-651). The data set can be described thus: EMSA; BETA-2 and E-47 cDNAs. Particulars: label: 32P.

BETA-2/E47 heterodimer (reticulocyte lysate), sequence (Q60430 whole entry, chain 1 of 2): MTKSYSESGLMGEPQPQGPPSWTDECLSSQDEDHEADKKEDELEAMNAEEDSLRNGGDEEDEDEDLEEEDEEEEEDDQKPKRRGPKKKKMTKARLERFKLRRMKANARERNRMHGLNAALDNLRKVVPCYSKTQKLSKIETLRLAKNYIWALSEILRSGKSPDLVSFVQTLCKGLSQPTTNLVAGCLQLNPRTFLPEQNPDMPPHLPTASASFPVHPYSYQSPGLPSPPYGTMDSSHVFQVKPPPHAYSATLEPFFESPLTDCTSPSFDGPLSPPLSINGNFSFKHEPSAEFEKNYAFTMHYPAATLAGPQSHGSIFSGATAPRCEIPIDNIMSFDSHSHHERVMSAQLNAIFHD
BETA-2/E47 heterodimer (reticulocyte lysate), sequence (P15923 other isoform, or with tags, fused parts or gaps, chain 2 of 2): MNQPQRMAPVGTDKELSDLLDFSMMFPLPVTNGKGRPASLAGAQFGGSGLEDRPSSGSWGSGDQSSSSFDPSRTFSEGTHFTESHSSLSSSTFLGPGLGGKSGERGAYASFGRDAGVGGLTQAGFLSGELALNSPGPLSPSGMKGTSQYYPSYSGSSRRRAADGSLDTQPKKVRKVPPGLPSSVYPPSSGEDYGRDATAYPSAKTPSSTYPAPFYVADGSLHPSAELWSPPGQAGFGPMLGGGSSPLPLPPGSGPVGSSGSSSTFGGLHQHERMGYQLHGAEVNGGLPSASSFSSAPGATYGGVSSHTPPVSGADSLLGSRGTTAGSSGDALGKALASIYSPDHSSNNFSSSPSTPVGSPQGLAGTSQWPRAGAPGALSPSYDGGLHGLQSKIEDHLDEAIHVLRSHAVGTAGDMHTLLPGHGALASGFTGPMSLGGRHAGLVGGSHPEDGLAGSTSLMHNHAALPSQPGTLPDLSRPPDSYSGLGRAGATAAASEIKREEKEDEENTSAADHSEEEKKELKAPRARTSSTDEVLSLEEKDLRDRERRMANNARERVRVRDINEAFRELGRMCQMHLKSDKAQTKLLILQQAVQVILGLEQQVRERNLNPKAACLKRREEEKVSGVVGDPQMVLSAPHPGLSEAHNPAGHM

B1: B element WT (dsDNA)
DNA 1: TCAGTGACAGATGGAGTCCT
DNA 2: AGGACTCCATCTGTCACTGA
Consider B1, for which the binding result was “binds”.
